The values that follow come from patent US7524498.

What is called IC50 is the midpoint of a concentration-inhibition curve. Read a low IC50 as higher potency.

Values joined by “and” are separate entries in the source; they are usually repeats but may differ in a detail not shown here. Equal entries are not always repeated. Where two headings read alike, the source gives them in different places.

In assay [1] the target is BAT-1 antigen (human). Put plainly: flow cytometry on PBL of a prostate cancer patient, B cells.
Assay [2] addresses BAT-1 antigen (human). The assay is described as follows: flow cytometry on non-activated human CD4+ T cells. On the technique in general: Flow cytometry measures light scatter and fluorescence of single cells or particles in a stream.
Assay [3] deals with BAT-1 antigen (human). Put plainly: flow cytometry on non-adherent PBL of a normal donor, within CD19+ B cells.
In assay [4] the target is BAT-1 antigen (human). The assay is described as follows: flow cytometry on human PBL of a selected normal donor, hBAT+ CD8+ cells.
Assay [5] concerns the target BAT-1 antigen (human). Put plainly: flow cytometry on non-adherent PBL of a normal donor.
Assay [6] has as its target BAT-1 antigen (human). The assay is described as follows: flow cytometry on PBL of a prostate cancer patient, CD4+ cells.
For assay [7], the target named is BAT-1 antigen (human). Put plainly: flow cytometry on human PBL of a selected normal donor, hBAT+ CD4+ cells.
In assay [8] the target is BAT-1 antigen (human). The assay is described as follows: flow cytometry on human PBL of normal donors, 4° C. 1 hr, gated lymphocytes.
Assay [9] has as its target BAT-1 antigen (human).
For assay [10], the target named is BAT-1 antigen (human). The assay is described as follows: flow cytometry on PBL of a prostate cancer patient, CD8+ cells.
The target of assay [11] is BAT-1 antigen (human). Put plainly: flow cytometry on non-adherent PBL of a normal donor, within CD20+ B cells.
Assay [12] deals with BAT-1 antigen (human). The assay is described as follows: flow cytometry on human PBL of a selected normal donor, within CD4+ cells.
The target of assay [13] is BAT-1 antigen (human). Put plainly: flow cytometry on human PBL of a selected normal donor.
Assay [14] deals with BAT-1 antigen (human). This is another data set of the same source.
Assay [15] concerns the target BAT-1 antigen (human). This is another data set of the same source.
In assay [16] the target is BAT-1 antigen (human). Put plainly: flow cytometry on human PBL of a selected normal donor, within CD8+ cells.

For “humanized BATRHC/BATRκD γ1 mAb (antibody)”, in assay [1], the % of B cells bound is 68%. The % of CD4+ cells binding in assay [2] is 17% and 20%. The molecule further gave a % of CD19+ cells positive in assay [3] of 75%. The molecule further displayed a % of PBL positive (CD8+ cells) in [4] of 15%. In addition, in assay [5], the % of lymphocytes positive is 25% and 29%. The molecule further came in with a % of CD4+ cells bound in assay [6] of 39%. Further, in assay [7], the % of PBL positive (CD4+ cells) amounted to 25%. Moreover, in assay [8], the % of cells binding is 20%. For the same molecule, in assay [9], the IC50 came to 10 µg/mL. Moreover, in assay [10], the % of CD8+ cells bound was determined as 60%. The same molecule returned a % of CD20+ cells positive in [11] of 70%.

B1: humanized BATRHC/BATRκD γ1 mAb (antibody, V domains shown)
VH: QVQLVQSGSELKKPGASVKISCKASGYTFTNYGMNWVRQAPGQGLQWMGWINTDSGESTYAEEFKGRFVFSLDTSVNTAYLQITSLTAEDTGMYFCVRVGYDALDYWGQGTLVTVSS
VL: EIVLTQSPSSLSASVGDRVTITCSARSSVSYMHWFQQKPGKAPKLWIYRTSNLASGVPSRFSGSGSGTSYCLTINSLQPEDFATYYCQQRSSFPLTFGGGTKLEIK
B1: the % of CD4+ cells binding was 58% in [12]; 52% and 77% in assay [14]. The molecule also had a % of cells positive in assay [13] of 50%. Further, in [15], the Signal Strength was found to be 0. The molecule further gave a % of CD8+ cells binding in [16] of 71%.
